# B1: Gad3del/pNW12: glutamate decarboxylase homolog from Alstroemeria with in-frame deletion (SEQ ID NO: 4), N-terminal His-tag fusion from vector pNW12 (protein)
# chain: MALSSVVSDSNNQVQCTYASRYVRDEAPGFRMPEKSIPKEAAFTMINDELMLDGNPRLNLASFVTTWMEPECDRLMMSTINKNYALMDDYPVTIDIQNRCVNMIANLFNAPIGEGETTVGCATVGSSEAMMLAGLAFKRNWQNKRKAEGKPYDKPNMVTGSNVQVCWVKFAKYFEVEMKKVNLREGYYVMDPEKAVEMVDENTICVAAILGSTLTGEFEDVKLLNDLLVEKNKKTGWDTPIHVDAAIGGFIAPFIYPELEWDFRLPLVKSINVSGHKYGLVYPGVGWVVWRNKNDLPEELIFHINYLGIDQPTFTLNFSKGSNQIIGQYYQLIRLGFEGYKNIMENCTENARILREHLEEMGVFEIISKDIGAPLVTIALKDSSKHSVFKIADTIRRFGWTIPAYTMPKDVEHIAVLRVVIREDFSRSLAERLANDMKKVLVELDIHPSRTTTIAHVKAVENGNGNYVIKKSIVENGNGEHVIKKSIGENGNGKHAIKNCRDAVIANAA
# modifications: N-terminal His-tag; Alstroemeria
# B2: Gad2/pNW2: glutamate decarboxylase homolog from Alstroemeria (SEQ ID NO: 2), expressed in E. coli from vector pNW2, crude protein (protein)
# chain: MVLSSAVSDNTGPVHCTFASRYVRDAPARFRMPENSIPKDTAYQIVNDELMLDGNPRLNLASFVTTWMEPECDRLMIAAANKNYVDMDEYPVTTELQNRCVNIIAHLFNAPIGDEETAVGVGTVGSSEAIMLAGLAFKRKWQNKKKAEGKPYDKPNIVTGANVQVCWEKFARYFEVELKEVKLREGYYIMDPEKAVEMVDENTICVAAILGSTLTGEFEDVKLLNKLLEEKNKETGWDTPIHVDAASGGFIAPFLYPELEWDFRLPLVKSINVSGHKYGLVYAGVGWVVWRNKEDLPEELIFHINYLGADQPTFTLNFSKGSSQIIAQYYQFIRLGFQGYKNIMENCMENTRILREGLQETGRFEIVSKDIGVPLVAFALKDSSQYTVFEIADAMRRFGWIIPAYTMPKDAEHIAVLRVVIREDFSRSLAERLVNDMKKVLAELDVLPSRITTIAHVTAVENDNGEAVIKKSFLEIEKKVITHWKDVVMNGKKTNKVC
# modifications: Alstroemeria
# B3: gad3chim: chimeric glutamate decarboxylase homolog from Alstroemeria (SEQ ID NO: 6), N-terminal His-tag fusion from vector pNW9 (protein)
# chain: MALSSVVSDSNNQVQCTYASRYVRDEAPGFRMPEKSIPKEAAFTMINDELMLDGNPRLNLASFVTTWMEPECDRLMMSTINKNYALMDDYPVTIDIQNRCVNMIANLFNAPIGEGETTVGCATVGSSEAMMLAGLAFKRNWQNKRKAEGKPYDKPNMVTGSNVQVCWVKFAKYFEVEMKKVNLREGYYVMDPEKAVEMVDENTICVAAILGSTLTGEFEDVKLLNDLLVEKNKKTGWDTPIHVDAAIGGFIAPFIYPELEWDFRLPLVKSINVSGHKYGLVYPGVGWVVWRNKNDLPEELIFHINYLGIDQPTFTLNFSKGSNQIIGQYYQLIRLGFEGYKNIMENCTENARILREHLEEMGVFEIISKDIGAPLVTIALKDSSKHSVFKIADTIRRFGWTIPAYTMPKDVEHIAVLRVVIREDFSRSLAERLANDMKKVLVELDIHPSRTTTIAHVKAVENGNGNYVIKKSIVENGNGEHVIKKSIGENGNGKHAIKNEHVIKKSIGENFNGKHAIKNCRDAVIANAA
# modifications: N-terminal His-tag; Alstroemeria
# Key:
# [1] = Decarboxylase enzyme activity of E. coli extracts, substrate L-glutamate (HPLC of FMOC derivatives); assay type: biochemical; settings: for Rate for each substrate: Glutamate (1): crude protein, 20 mM L-glutamate, pH 5.8, room temperature; for Ratio (½): rate with glutamate (1) over rate with γ-methyleneglutamate (2)
# Description: (§1) Chemically competent BL21 (DE3) cells (Novagen) were transformed with pNW2, pNW12 and pNW9, as well as with plasmids pET28a and pET29a. An isolated colony of freshly transformed cells was inoculated into 2 mL of LB containing kanamycin (50 μg/mL) and the culture grown overnight at 37° C. Cultures were transferred to 250 mL of LB containing kanamycin (50 μg/mL) and grown at 22° C. to OD 0.6-1.0, at which point they were induced with IPTG (0.1 mM). Induced cells were grown for an additional 14 h and harvested by centrifugation at 10,000× g.
# (§2) Cells were resuspended in 5 mL of extraction buffer (50 mM Tris-HCl, pH 7.5, 0.2 mM EDTA, 10% glycerol, 1 mM DTT and 1 mM fresh AEBSF) and disrupted by two passes through a French press cell (12,000 psi). Soluble protein extracts were obtained from the supernatant fraction after centrifugation at 10,000× g for 10 min. Protein concentrations were determined using a Bradford reagent (Bio-Rad) (Bradford, Anal. Biochem. 72:248-254 (1976)).
# (§3) Enzyme activity was determined using a method similar to that of Snedden et al. (J. Biol. Chem. 271:4148-4153 (1996)) and Turano et al. (Plant Physiol. 117:1141-1421 (1998)). Assays were carried out in a volume of 200 μL with 200 mM pyridine-HCl, pH 5.8, 10 mM NaCl, 0.1 mM PLP, 20 mM L-glutamate or D,L-γ-methyleneglutamate, and 20 to 50 uL of enzyme extract. The reactions were incubated at room temperature and 50 μL aliquots were removed at various times. Ethanol (100 μL) was added to terminate the reaction and precipitate the proteins. Samples were centrifuged at 10,000× g for 10 min. The supernatants were transferred to a fresh tube and dried under vacuum after which they were dissolved in 500 μL of borate buffer (400 mM, pH 10). For HPLC analysis, 20 μL of the sample was derivatized by mixing with 20 μL of FMOC ((9-fluorenylmethoxycarbonyl)). FMOC-derivatized samples were separated on a Novapak C18 column (3.9×150 mm, Waters) using an Alliance 2690 HPLC with a 9600 PDA detector (Waters). Samples were injected (16 μL) and separated with a gradient of Buffer A (40 mM NaPO4, pH 7.8) to Buffer B (methanol:acetonitrile:water/45:45:10). Assay products were FMOC-derivatized and quantified by comparison with standards. In each experiment, enzyme activity determinations were performed in triplicate. Proteins from Escherichia coli expressing empty vectors pET28a and pET29a were used as controls.
# [2] = Decarboxylase enzyme activity of E. coli extracts, substrate D,L-γ-methyleneglutamate (HPLC of FMOC derivatives); assay type: biochemical; settings: for Rate for each substrate: γ-methyleneglutamate (2): crude protein, 20 mM D,L-γ-methyleneglutamate, pH 5.8, room temperature; for enzyme activity against D,L-γ-methyleneglutamate compared with L-glutamate: proteins from expressing cells
# Description: as §1, §2, §3
Molecule,Rate for each substrate: Glutamate (1) [1],Ratio (½) [1],Rate for each substrate: γ-methyleneglutamate (2) [2],"enzyme activity against D,L-γ-methyleneglutamate compared with L-glutamate [2]","enzyme activity with L-glutamate compared with D,L-γ-methyleneglutamate as substrate ([1]; proteins from expressing cells)"
B1,7.0 μmol/min^−1/mg^−1,0.56,12.4 μmol/min^−1/mg^−1,much higher,–
B2,12.0 μmol/min^−1/mg^−1,16,0.8 μmol/min^−1/mg^−1,–,sixteen times higher
B3,–,–,–,much higher,–

# — patent US20030170653A1, “Biological method for the production of tuliposide A and its intermediates” (priority 2001, published 2003)
